The data set has as its system MS2 coat protein. The experiment in a line: apparent KD of MS2 coat protein; designed switch direction (-1 OFF switch, 1 ON switch): 1; higher = weaker reporter binding. The gist of the method:
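RNA switches sharing common flanks were transcribed by stalled E. coli RNA polymerase on Illumina chips. A doubling series of SNAP-549-labelled MS2 coat protein, from 0.7 or 1.5 nM to 3 µM, was applied in Tris-HCl pH 7.5 buffer with KCl, MgCl2, BSA, DTT, tRNA and Tween-20. Each step lasted 0.8–1.5 h at the bottom of the series and 10–20 min at the top. Normalised cluster fluorescence was curve-fitted, giving apparent KD as the per-design median over clusters.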

The mark [1] stands for this setting: input ligand: microRNA oligo, concentration not stated.
Where [2] appears, read: Eterna round: R95, input ligand: FMN 200 uM.
The mark [3] stands for this setting: Eterna round: R95, input ligand: microRNA oligo, concentration not stated.
Setting [4] is: Eterna round: R95, input ligand: none.

“GCUCGACGUAUGGCCUACAUGAGGAUCACCCAUGUGACUGGGCAGGAUAUCUAGAUGCAGAAUGUAGAGAAGGGCCCGUCGAGC [SameState NG3 #48] (Eterna round: R96, puzzle: Same State NG 3)”: the “apparent KD of MS2 coat protein” value by setting is: (input ligand: FMN 200 uM) 244 nM; under setting [1], 74 nM; (input ligand: none) 194 nM.
Turning to “GCUCGAUGAGCGGUUUACAUGAGGAUCACCCAUGUACAUGGGCAGGAUAUUUACGUGCUUUGUGUAGAGAAGGGCCCAUCGAGC [SameState NG3 #74] (Eterna round: R96, puzzle: Same State NG 3)”, the “apparent KD of MS2 coat protein” value reads like this: (input ligand: FMN 200 uM) 92.4 nM; under setting [1], 280 nM; (input ligand: none) 244 nM.
In the same order, the values of “GCUGGAAAUCACAUGAGGAUCACCCAUGUUCCGGAAACGGCACAGGAUAUCUGUCCGAAAAGGUCAGAGAAGGGUGAAACCAGC [Fiskers NG3ss - 85] (Eterna round: R96, puzzle: Same State NG 3)” are 303 nM, 56.1 nM and 105 nM.
The corresponding values for “GCUUCGGCGGUAGGAUAUCUAGGAUAUGGGAAGAGCUAAGCUUGGAAGUCACUUCACCCAGAAGGAGAGAAGGACACCUUCGGG [pwkr ssNG2 2FMN + F9.4] (Eterna round: R96, puzzle: Same State NG 2)” are 230 nM, 3.87 nM and 47 nM.
In the case of “GGACGUCAACUCACUAAUUAACAUGAGGAUCACCCAUGUUCACAGGAUAUGAGUCCGAUUAGGACUCAGAAGGGUGAGACGUCC [Fiskers NG3ss - 48] (Eterna round: R96, puzzle: Same State NG 3)”, the “apparent KD of MS2 coat protein” value was 20.3 nM (input ligand: FMN 200 uM), 19.7 nM under setting [1] and 21.1 nM (input ligand: none).
In the case of “GGACGUCAAUCUCCUACUUAAACAUGAGGAUCACCCAUGUCACAGGAUAUGAGUCCGAUUAGGACUCAGAAGGGUGAGACGUCC [Fiskers NG3ss - 50] (Eterna round: R96, puzzle: Same State NG 3)”, the “apparent KD of MS2 coat protein” value (input ligand: FMN 200 uM) is 18.8 nM, the “apparent KD of MS2 coat protein” value under setting [1] stood at 15.2 nM and the “apparent KD of MS2 coat protein” value (input ligand: none) came to 16 nM.
On to “GGAGAGAGAGCACAGGAUAUUUAAGGAGAGACAUGAGGAUCACCCAUGUGAGAGAGAGAGGAGAGAGAGAAGGGUGAGAGAGAGG [Altered State 2-17 - Jieux - Same State 2] (puzzle: Same State 2)”, for which the “apparent KD of MS2 coat protein” value is, setting by setting: under setting [2], 109 nM; under setting [3], 79.1 nM; under setting [4], 83.9 nM.
As to “GGAGCCAAGGCAGGAUAUUCAACAUGAGGAUCACCCAUGUGGGUAAUAAAGGCCAGAAGGCCUUGGGAGAAGGGCCAUGGCUCG [Xeonanis - 13 mod13] (Eterna round: R96, puzzle: Same State NG 2)”, the “apparent KD of MS2 coat protein” value (input ligand: FMN 200 uM) stood at 16.8 nM, the “apparent KD of MS2 coat protein” value under setting [1] was determined as 9.17 nM and the “apparent KD of MS2 coat protein” value (input ligand: none) worked out at 17.7 nM.
On to “GGAGCCAAGGCAGGAUAUUCAUAUAAAUUAACAUGAGGAUCACCCAUGUAGGCCAGAAGGCCUUGGGAGAAGGGCCAUGGCUCG [Xeonanis - 13 mod8] (Eterna round: R96, puzzle: Same State NG 2)”, for which the “apparent KD of MS2 coat protein” value runs as follows: (input ligand: FMN 200 uM) 21.6 nM; under setting [1], 143 nM; (input ligand: none) 157 nM.
On to “GGAGCCGGCACCGAGGAUAUUCAUAUUAAAACAUGAGGAUCACCCAUGUACCGCAGAAGCGGUUGGGAGAAGGCGGAUCGGCUCG [Xeonanis - 23] (Eterna round: R96, puzzle: Same State 2)”, for which the “apparent KD of MS2 coat protein” value (input ligand: FMN 200 uM) worked out at 31.3 nM, the “apparent KD of MS2 coat protein” value under setting [1] was found to be 311 nM and the “apparent KD of MS2 coat protein” value (input ligand: none) came out at 534 nM.
Regarding “GGAGCCGGCACCGAGGAUAUUCAUAUUAAAACAUGAGGAUCACCCAUGUACCGCAGAAGCGGUUGGGAGAAGGCGGAUCGGCUCG [Xeonanis - 23] (puzzle: Same State 2)”, the “apparent KD of MS2 coat protein” value runs as follows: under setting [2], 33 nM; under setting [3], 271 nM; under setting [4], 730 nM.
As to “GGAGCCGGCACCGAGGAUAUUCAUAUUAAAACAUGAGGAUCACCCAUGUAGAGGAGAACCUCUUGGGAGAAGGCGGAUCGGCUCG [Xeonanis - 26] (puzzle: Same State 2)”, the “apparent KD of MS2 coat protein” value under setting [2] came out at 289 nM, the “apparent KD of MS2 coat protein” value under setting [3] stood at 723 nM and the “apparent KD of MS2 coat protein” value under setting [4] was determined as 1090 nM.
For “GGAGCCGGCCUAGGAUAUUUCAUAAUAAUACAUGAGGAUCACCCAUGUAGGCCAGAAGGCCUUGGGAAGAAGGAGGUCGGCUCC [Loop Effect - U26,U29] (Eterna round: R96, puzzle: Same State NG 2)”, the “apparent KD of MS2 coat protein” value by setting is: (input ligand: FMN 200 uM) 14.1 nM; under setting [1], 26 nM; (input ligand: none) 43.2 nM.
In the same order, the values of “GGAGCCGGCCUAGGAUAUUUCAUAUAUUAACAUGAGGAUCACCCAUGUAGGCCAGAAGGCCUUGGGAAGAAGGAGGUCGGCUCC [Loop Effect - U25,U27,U28] (Eterna round: R96, puzzle: Same State NG 2)” are 15.7 nM, 49.8 nM and 79.6 nM.
On to “GGAGCUGUUAUAGGAUAUCCCGCGCAUUACGCGGGAGAAGGGUGACGCUCACAUGAGGAUCACCCAUGUGGCGUUCCAAAAUAA [Rate] (Eterna round: R96, puzzle: Same State NG 1)”, for which the “apparent KD of MS2 coat protein” value (input ligand: FMN 200 uM) amounted to 11.8 nM, the “apparent KD of MS2 coat protein” value under setting [1] was 8.12 nM and the “apparent KD of MS2 coat protein” value (input ligand: none) worked out at 12.4 nM.
On to “GGAGGACAUGAGGAUCACCCAUGUGGAUGAUCGCUAGGAUAUGCGUGCAGGAAGAGUGGUGCAGAAGGAGUGGGAU [JR_SS1_Sub048] (puzzle: Same State 1)”, for which the “apparent KD of MS2 coat protein” value under setting [3] turned out to be 348 nM.
“GGAUGAUAGACAGGAUAUUGAUUGUAAUUAGGUCAAGAAGGGUCAAUGAUUUAAACGACCAGUUACAUGAGGAUCACCCAUGUU [JR_SSNG1_Sub027] (Eterna round: R96, puzzle: Same State NG 1)”: the “apparent KD of MS2 coat protein” value by setting is: (input ligand: FMN 200 uM) 160 nM; under setting [1], 208 nM; (input ligand: none) 315 nM.
The corresponding values for “GGAUGAUUGACAGGAUAUCAUUUGUAAAUUGGUUGAGAAGGGUCGAUUACUUACACGACCUGUUACAUGAGGAUCACCCAUGUU [SameState NG1 #3] (Eterna round: R96, puzzle: Same State NG 1)” are 34.9 nM, 20.5 nM and 31 nM.
Regarding “GGCAGGUGCAGGCUUGCUUGCACCUGGAGACAUGAGGAUCACCCAUGUUUGGGACAAGCUUUGCUCCUCGUCUUUUC [JL ViennaUCT Isusreraar mod 7] (Eterna round: R96, puzzle: Sensor for hsa-mir-208a)”, the “apparent KD of MS2 coat protein” value is 622 nM (input ligand: FMN 200 uM), 111 nM under setting [1] and 775 nM (input ligand: none).
Consider “GGCAGGUGCAGGCUUGCUUGCACCUGGAGACAUGAGGAUCACCCAUGUUUGGGACAAGCUUUGCUCCUCGUCUUUUC [JL ViennaUCT Isusreraar mod 7] (puzzle: Sensor for hsa-mir-208a)”, for which the “apparent KD of MS2 coat protein” value turned out to be 617 nM under setting [2], 104 nM under setting [3] and 766 nM under setting [4].
With “GGCCUCUGUCAAGGAUAUGCUACCGUUUCGGUAGCAGAAGGUGAUCACAUGAGGAUCACCCAUGUUUAGGCCAACAGGCCCGCC (Eterna round: R96, puzzle: Same State NG 1)”, the “apparent KD of MS2 coat protein” value turned out to be 1420 nM (input ligand: FMN 200 uM), 445 nM under setting [1] and 1070 nM (input ligand: none).
Turning to “GGCUGUUAAUUAGGAUAUGGUCACAUGAGGAUCACCCAUGUAACGAUGAUACGAUGUGGUCAAGACUAGAAGGGAUCGCUAACA [SameState NG2 #71] (Eterna round: R96, puzzle: Same State NG 2)”, the “apparent KD of MS2 coat protein” value by setting is: (input ligand: FMN 200 uM) 172 nM; under setting [1], 128 nM; (input ligand: none) 105 nM.
On to “GGGAGAGGUACAGGAUAUGGUGAGGAUCACCCACUAGAAGGGUGCACAUGUGAAUCGGACAUGAGGAUCACCCAUGUUGGGCGU (Eterna round: R96, puzzle: Same State NG 1)”, for which the “apparent KD of MS2 coat protein” value is 213 nM (input ligand: FMN 200 uM), 265 nM under setting [1] and 424 nM (input ligand: none).
Take “GGGAGAGUUACAGGAUAUGGUGAGGAUUACCCACUAGAAGGGUAAACAUGUGAAUCGGACAUGAGGAUCACCCAUGUUGGGCGU (Eterna round: R96, puzzle: Same State NG 1)”: the “apparent KD of MS2 coat protein” value by setting is: (input ligand: FMN 200 uM) 162 nM; under setting [1], 160 nM; (input ligand: none) 203 nM.
As for “GGUAAGAAUUAAGGAUAUUGAAUACAUAUGUUUAACAUGAGGAUCACCCAUGUGGGUUGCGGUGUCGAGAAGGUAAAUUACUAG [Mat - same State NG 2 - JL mod - D99] (Eterna round: R96, puzzle: Same State NG 2)”, the “apparent KD of MS2 coat protein” value turned out to be 281 nM (input ligand: FMN 200 uM), 179 nM under setting [1] and 229 nM (input ligand: none).
As for “GGUAGGUUACUACCAAACAUGAGGAUCACCCAUGUAGGUGGGAAGGAUAUGGUACCUUUUAGGUACCAGAAGGUCCAUACGAUC [NGss mod of JL's mod of Fisker 2] (Eterna round: R96, puzzle: Same State NG 3)”, the “apparent KD of MS2 coat protein” value is, setting by setting: (input ligand: FMN 200 uM) 451 nM; under setting [1], 325 nM; (input ligand: none) 562 nM.
For the sequence “GGUAGGUUACUACCAAACAUGAGGAUCACCCAUGUUGAUGGGAAGGAUAUGGUACCUUUUAGGUACCAGAAGGUCUACUCGAUC [NGss mod of JL's mod of Fisker 3] (Eterna round: R96, puzzle: Same State NG 3)”, the “apparent KD of MS2 coat protein” value by setting is: (input ligand: FMN 200 uM) 111 nM; under setting [1], 106 nM; (input ligand: none) 148 nM.

The values above are taken from the supplement of paper PMC9170038.
